In US8357523B2, “Beta-glucosidase variant enzymes and related polynucleotides” (Codexis, Inc., priority 2009, dated 2013):
Residue numbers refer to the chain shown, from its start.

B1: 73 (protein)
chain: STAIAQEGAAPAAILHPEKWPRPATQRLIDPAVEKRVDALLKQLSVEEKVGQVIQGDIGTITPEDLRKYPLGSILAGGNSGPNGDDRAPPKEWLDLADAFYRVSLEKRPGHTPIPVLFGIDAVHGHGNIGSATIFPHNIALGATHDPELLRRIGEVTAVEMAATGIDWTFAPALSVVRDDRWGRTYEGFSEDPEIVAAYSAAIVEGVQGKFGSKDFMAPGRVVASAKHFLADGGTDQGRDQGDARISEDELIRIHNAGYPPAIDAGVLTVMASFSSWQGIKHHGHKQLLTDVLKGQMGFNGFIVGDWNAHDQVPGCTKFNCPTSLIAGLDMYMAADSWKQLYENTLAQVKDGTIPMARLDDAVRRILRVKVLAGLFEKPAPKDRPGLPGLETLGSPEHRAVGREAVRKSLVLLKNDKGTLPLSPKARVLVAGDGADNIGKQSGGWTISWQGTGNRNDEFPGATSILGGIRDAVADAGGSVEFDVAGQYKTKPDVAIVVFGEEPYAEFQGDVETLEYQPDQKQDLALLKKLKDQGIPVVAVFLSGRPMWVNPELNASDAFVAAWLPGTEGGGVADVLFTDKAGKVQHDFAGKLSYSWPRTAAQTTVNRGDADYNPLFAYGYGLTYKDKSKVGTLPEESGVPAEARQNAGIYFRAGALRLPGRFL
B2: 75 (protein)
chain: B1 chain with H145R
B3: 169 (protein)
chain: B1 chain with N79D, H145R, V159Q, A162T, A201P, F211Y, V222I, S225C
B4: 141 (protein)
chain: B1 chain with A143M, H145R, F211Y, P219V, V222I, S225C
B5: 153 (protein)
chain: B1 chain with N79D, E92V, N128K, A143M, H145R, A201P, F211Y, V222S, S225C
B6: 146 (protein)
chain: B1 chain with N79D, A143M, H145R, V159Q, A201P, V222I, S225C, K378R
B7: 73a (protein)
chain: B1 chain with T60Y, V222I
B8: 76 (protein)
chain: B1 chain with N128K, H145R, V222I
B9: 142 (protein)
chain: B1 chain with N79D, N128K, H145R, A201P, P219V, V222I, K491R
B10: 159 (protein)
chain: B1 chain with N79D, H145R, A162T, A198S, V222I, S225C
B11: 136 (protein)
chain: B1 chain with N128K, A143M, H145R, V159Q, A198S, F211Y, V222A, S225C, M297I, Q487R
B12: 147 (protein)
chain: B1 chain with N79D, N128K, H145R, A173C, A198S, F211Y, V222S
B13: 167 (protein)
chain: B1 chain with N79D, N128K, H145R, V222I
B14: 164 (protein)
chain: B1 chain with N79D, N128K, H145R, D146S, V222I, S225C
B15: 155 (protein)
chain: B1 chain with N79D, H145R, A198S, V222I, S225C
B16: 139 (protein)
chain: B1 chain with A143M, H145R, A162T, F211Y, V222I, S225C
B17: 160 (protein)
chain: B1 chain with H145R, D146S, V159Q, A201P, F211Y, V222A, S225C
B18: 165 (protein)
chain: B1 chain with A143M, H145R, A201P, V222I, S225C
B19: 156 (protein)
chain: B1 chain with N79D, N128K, A143M, H145R, A162T, A198S, V222S, S225C, Q237R
B20: 77 (protein)
chain: B1 chain with H145R, A201P, V222I, S225C
B21: 152 (protein)
chain: B1 chain with N79D, H145R, V159Q, A201P, F211Y, V222A, S225C
B22: 166 (protein)
chain: B1 chain with N79D, H145R, G154V, F211Y, V222I, S225C
B23: 168 (protein)
chain: B1 chain with N128K, H145R, V159Q, A201P, F211Y, V222S, S225C
B24: 158 (protein)
chain: B1 chain with N79D, H145R, I166T, A198S, F211Y, V222I, S225C
B25: 138 (protein)
chain: B1 chain with N79D, N128K, H145R, D146S, V159E, F211Y, V222S, S225C
B26: 74 (protein)
chain: B1 chain with N128K, H145R, A201P, V222I, S225C
B27: 149 (protein)
chain: B1 chain with N79D, N128K, H145R, D146S, V159Q, A201P, F211Y, V222I, S225C
B28: 148 (protein)
chain: B1 chain with N79D, H145R, V159E, A198S, V222I, S225C
B29: 150 (protein)
chain: B1 chain with N79D, I114V, N128K, H145R, A162T, A198S, F211Y, V222I, S225C
B30: 162 (protein)
chain: B1 chain with H145R, A173C, A201P, F211Y, P219V, V222I
B31: 134 (protein)
chain: B1 chain with N128K, A143M, H145R, V159E, A173C, A201P, F211Y, P219V, V222I
B32: 73b (protein)
chain: B1 chain with A202S, V222I
B33: 140 (protein)
chain: B1 chain with N79D, A143M, H145R, V159Q, A201P, F211Y, P219V, V222I, S225C
B34: 154 (protein)
chain: B1 chain with A143M, H145R, V159Q, A201P, F211Y, V222A, S225C, F229I
B35: 145 (protein)
chain: B1 chain with N79D, H145R, D146S, V159E, A198S, F211Y, V222I, S225C
B36: 143 (protein)
chain: B1 chain with A143M, H145R, A198S, F211Y, V222I, S225C
B37: 151 (protein)
chain: B1 chain with A143M, H145R, A162T, A173C, A198S, F211Y, V222I, L514Q
B38: 144 (protein)
chain: B1 chain with N128K, H145R, A162T, A198S, F211Y, P219V, V222I, S225C
B39: 163 (protein)
chain: B1 chain with N79D, N128K, H145R, D146S, A162T, A173C, A198S, F211Y, V222I

Assay: High throughput cellobiose assay: fold improvement in cellobiase activity of CelA variants over a control enzyme (Tables 2A-2D, 3, 5, 6, 7)
Assay type: biochemical
Conditions: 3.3 g/l cellobiose; for Fold improvement over wildtype CelA: 50° C. and pH 6.5, compared to native CelA (SEQ ID NO: 4); for Fold improvement over Control Variant No. 5 from Table 2A: 55° C. and pH 6.0

Row | Molecule | Fold improvement over wildtype CelA | Fold improvement over Control Variant No. 5 from Table 2A
1 | B1 | + (+ = 1.1 to 2.0 fold improvement over native CelA (SEQ ID NO: 4)) | –
2 | B2 | – | ++ (++ = 1.1 to 6 fold improvement over control Variant No. 2)
3 | B3 | – | +++ (+++ = 6 to 13 fold improvement over control Variant No. 2)
4 | B4 | – | +++ (+++ = 6 to 13 fold improvement over control Variant No. 2)
5 | B5 | – | ++ (++ = 1.1 to 6 fold improvement over control Variant No. 2)
6 | B6 | – | +++ (+++ = 6 to 13 fold improvement over control Variant No. 2)
7 | B7 | + (+ = 1.1 to 2.0 fold improvement over native CelA (SEQ ID NO: 4)) | –
8 | B8 | – | ++ (++ = 1.1 to 6 fold improvement over control Variant No. 2)
9 | B9 | – | +++ (+++ = 6 to 13 fold improvement over control Variant No. 2)
10 | B10 | – | +++ (+++ = 6 to 13 fold improvement over control Variant No. 2)
11 | B11 | – | ++ (++ = 1.1 to 6 fold improvement over control Variant No. 2)
12 | B12 | – | +++ (+++ = 6 to 13 fold improvement over control Variant No. 2)
13 | B13 | – | ++ (++ = 1.1 to 6 fold improvement over control Variant No. 2)
14 | B14 | – | +++ (+++ = 6 to 13 fold improvement over control Variant No. 2)
15 | B15 | – | +++ (+++ = 6 to 13 fold improvement over control Variant No. 2)
16 | B16 | – | +++ (+++ = 6 to 13 fold improvement over control Variant No. 2)
17 | B17 | – | +++ (+++ = 6 to 13 fold improvement over control Variant No. 2)
18 | B18 | – | +++ (+++ = 6 to 13 fold improvement over control Variant No. 2)
19 | B19 | – | +++ (+++ = 6 to 13 fold improvement over control Variant No. 2)
20 | B20 | – | ++ (++ = 1.1 to 6 fold improvement over control Variant No. 2)

Row | Molecule | Fold improvement over wildtype CelA | Fold improvement over Control Variant No. 5 from Table 2A
21 | B21 | – | +++ (+++ = 6 to 13 fold improvement over control Variant No. 2)
22 | B22 | – | +++ (+++ = 6 to 13 fold improvement over control Variant No. 2)
23 | B23 | – | +++ (+++ = 6 to 13 fold improvement over control Variant No. 2)
24 | B24 | – | ++ (++ = 1.1 to 6 fold improvement over control Variant No. 2)
25 | B25 | – | +++ (+++ = 6 to 13 fold improvement over control Variant No. 2)
26 | B26 | – | ++ (++ = 1.1 to 6 fold improvement over control Variant No. 2)
27 | B27 | – | +++ (+++ = 6 to 13 fold improvement over control Variant No. 2)
28 | B28 | – | +++ (+++ = 6 to 13 fold improvement over control Variant No. 2)
29 | B29 | – | +++ (+++ = 6 to 13 fold improvement over control Variant No. 2)
30 | B30 | – | +++ (+++ = 6 to 13 fold improvement over control Variant No. 2)
31 | B31 | – | ++ (++ = 1.1 to 6 fold improvement over control Variant No. 2)
32 | B32 | + (+ = 1.1 to 2.0 fold improvement over native CelA (SEQ ID NO: 4)) | –
33 | B33 | – | +++ (+++ = 6 to 13 fold improvement over control Variant No. 2)
34 | B34 | – | ++ (++ = 1.1 to 6 fold improvement over control Variant No. 2)
35 | B35 | – | +++ (+++ = 6 to 13 fold improvement over control Variant No. 2)
36 | B36 | – | +++ (+++ = 6 to 13 fold improvement over control Variant No. 2)
37 | B37 | – | +++ (+++ = 6 to 13 fold improvement over control Variant No. 2)
38 | B38 | – | +++ (+++ = 6 to 13 fold improvement over control Variant No. 2)
39 | B39 | – | +++ (+++ = 6 to 13 fold improvement over control Variant No. 2)
